In patent US12180485B2, “Repressible control of gene expression” (TRUSTEES OF BOSTON UNIVERSITY, priority 2020, dated 2024):

Test system: mCherry expression in HEK293 FT cells
Experiment: Inducible split RfxCas13d (GIB, RAP, ABA, Dano, GRZ CID domains; NES/NLS variants) mCherry knockdown, leakiness and inducibility
Type: cell-based
Conditions: inducible polypeptide systems of Tables 18-22
Excerpt: FIG. 6A-6C is a series of schematics and graphs showing that split RfxCas13d's reconstituted and functioned to knockdown mCherry expression in HEK293 FT cells FIG. 6A is a schematic showing split sites selected throughout RfxCas13d sequence. FIG. 6B is a bar graph showing mCherry expression under 4 conditions for gibberellin-inducible, rapalog-inducible, and abscisic acid-inducible inducible split Cas13d designs. In FIG. 6B and FIG. 6C, the left-right order of the bars for each split site is the same as the left-right order of the legend for each bar graph.
FIG. 7A-7E is a series of schematics and graphs showing a functional and inducible split Cas13d design. FIG. 7A is a bar graph showing additional split sites selected in RfxCas13d and tested with GIB CID domains. […] In FIG. 7A and FIG. 7C, the left-right order of the bars for each split site is the same as the left-right order of the legend. FIG. 7B is a schematic showing the design to compartmentalize splits. Compartmentalizing moieties facilitates the reduction of leakiness. […] FIG. 7D is a schematic showing the experiment flow for testing reversibility of the inducible split Cas13d's.
FIG. 8A-8B is a series of schematics and graphs showing that split RfxCas13d's reconstituted upon drug-induced dimerization and knocked down mCherry expression in HEK293 FT cells. FIG. 8A is a bar graph showing quantification of system performance. The left-right order of the bars for each split site is the same as the top-down order of the legend. […] System performance in leakiness score (left axis) and induced activity (right axis) by GIB, RAP, ABA, and Dano-inducible split Cas13d designs.
FIG. 10A-10B is a series of schematics and graphs showing performance optimization through separating split Cas13d moieties in different cellular compartments. […] The left-right order of the bars for each bar graph is the same as the top-down order of the legend.
FIG. 11 is a series of schematics and graphs showing the testing of reversed orientation (dark grey dots) of CID domains with respect to split Cas13d pieces against original orientations (light grey dots) designed for GIB, ABA, Dano, and GRZ inducible systems.

| Molecule | performance in the tested conditions |
| --- | --- |
| SEQ ID NO: 814: inducible system polypeptide, probably Table 20 (GID-GAI) (protein) MIEKKKSFAKGMGVKSTLVSGSKVYMTTFAEGSDARLEKIVEGDSIRSVNEGEAFSAEMADKNAGYKIGNAKFSHPKGYAVVANNPLYTGPVQQDMLGLKETLEKRYFGESADGNDNICIQVIHNILDIEKILAEYITNAAYAVNNISGLDKDIIGFGKFSTVYTYDEFKDPEHHRAAFNNNDKLINAIKAQYDEFDNFLDNPRLGYFGQAFFSKEGRNYIINYGNECYDILALLSGLRHWVVHNNEEESRISRTWLYNLDKNLDNEYISTLNYLYDRITNELTNSFSKNSAANVNYIAETLGINPAEFAEQYFRFSIMKEQKNLGFNITKLREVMLDRKDMSEIRKNHKVFDSIRTKVYTMMDFVIYRYYIEEDAKVAAANKSLPDNEKSLSEKDIFVINLRGSFNDDQKDALYYDEANRIWRKLENIMHNIKEFRGNKTREYKKKDAPRLPRILPAGRDVSAFSKLMYALTMFLDGKEINDLLTTLINKFDNIQSFLKVMPLIGVNSGGSGSGSSGGSGTMKRDHHHHHHQDKKTMMMNEEDDGNGMDELLAVLGYKVRSSEMADVAQKLEQLEVMMSNVQEDDLSQLATETVHYNPAELYTWLDSMLTDLNPKKKRKV | highest performance |
| SEQ ID NO: 1206: inducible system polypeptide, probably Table 22 (reader and repressible protease) (protein) MAPKKKRKVGIHGVPAASSDEEEARELIERAKEAAERAQEAAERTGDPRVRELARELKRLAQEAAEEVKRDPSSSDVNEALKLIVEAIEAAVDALEAAERTGDPEVRELARELVRLAVEAAEEVQRNPSSSDVNEALHSIVYAIEAAIFALEAAERTGDPEVRELARELVRLAVEAAEEVQRNPSSRNVEHALMRIVLAIYLAEENLREAEESGDPEKREKARERVREAVERAEEVQRDPSGWLNHSGGSGSGSSGGSGTAKFVEEYAFFKDSAKIADELRLIKSFARMGEPIADARRAMYIDAIRILGTNLSYDELKALADTFSLDENGNKLKKGKHGMRNFIINNVISNKRFHYLIRYGDPAHLHEIAKNEAVVKFVLGRIADIQKKQGQNGKNQIDRYYETCIGKDKGKSVSEKVDALTKIITGMNYDQFDKKRSVIEDTGRENAEREKFKKIISLYLTVIYHILKNIVNINARYVIGFHCVERDAQLYKEKGYDINLKKLEEKGFSSVTKLCAGIDETAPDKRKDVEKEMAERAKESIDSLESANPKLYANYIKYSDEKKAEEFTRQINREKAKTALNAYLRNTKWNVIIREDLLRIDNKTCTLFRNKAVHLEVARYVHAYINDIAEVNSYFQLYHYIMQRIIMNERYEKSSGKVSEYFDAVNDEKKYNDRLLKLLCVPFGYCIPRFKNLSIEALFDRNEAAKFDKEKKKVSGNSGSGPKKKRKV | highest performance |
| SEQ ID NO: 391: PV1-ABI-L1-Cas13-508C-BGHpA (protein) MPLYGFTSICGRRPEMEDAVSTIPRFLQSSSGSMLDGRFDPQSAAHFFGVYDGHGGSQVANYCRERMHLALAEEIAKEKPMLCDGDTWLEKWKKALFNSFLRVDSEIGSVAPETVGSTSVVAVVFPSHIFVANCGDSRAVLCRGKTALPLSVDHKPDREDEAARIEAAGGKVIQWNGARVFGVLAMSRSIGDRYLKPSIIPDPEVTAVKRVKEDDCLILASDGVWDVMTDEEACEMARKRILLWHKKNAVAGDASLLADERRKEGKDPAAMSAAEYLSKLAIQRGSKDNISVVVVDLKDYKDDDDKSGGSGSGSSGGSGTAKFVEEYAFFKDSAKIADELRLIKSFARMGEPIADARRAMYIDAIRILGTNLSYDELKALADTFSLDENGNKLKKGKHGMRNFIINNVISNKRFHYLIRYGDPAHLHEIAKNEAVVKFVLGRIADIQKKQGQNGKNQIDRYYETCIGKDKGKSVSEKVDALTKIITGMNYDQFDKKRSVIEDTGRENAEREKFKKIISLYLTVIYHILKNIVNINARYVIGFHCVERDAQLYKEKGYDINLKKLEEKGFSSVTKLCAGIDETAPDKRKDVEKEMAERAKESIDSLESANPKLYANYIKYSDEKKAEEFTRQINREKAKTALNAYLRNTKWNVIIREDLLRIDNKTCTLFRNKAVHLEVARYVHAYINDIAEVNSYFQLYHYIMQRIIMNERYEKSSGKVSEYFDAVNDEKKYNDRLLKLLCVPFGYCIPRFKNLSIEALFDRNEAAKFDKEKKKVSGNSGSGPKKKRKVPKKKRKV | highest performance |
| SEQ ID NO: 813: inducible system polypeptide, probably Table 20 (GID-GAI) (protein) MAASDEVNLIESRTVVPLNTWVLISNFKVAYNILRRPDGTFNRHLAEYLDRKVTANANPVDGVFSFDVLIDRRINLLSRVYRPAYADQEQPPSILDLEKPVDGDIVPVILFFHGGSFAHSSANSAIYDTLCRRLVGLCKCVVVSVNYRRAPENPYPCAYDDGWIALNWVNSRSWLKSKKDSKVHIFLAGDSSGGNIAHNVALRAGESGIDVLGNILLNPMFGGNERTESEKSLDGKYFVTVRDRDWYWKAFLPEGEDREHPACNPFSPRGKSLEGVSFPKSLVVVAGLDLIRDWQLAYAEGLKKAGQEVKLMHLEKATVGFYLLPNNNHFHNVMDEISAFVNAECSGGSGSGSSGGSGTAKFVEEYAFFKDSAKIADELRLIKSFARMGEPIADARRAMYIDAIRILGTNLSYDELKALADTFSLDENGNKLKKGKHGMRNFIINNVISNKRFHYLIRYGDPAHLHEIAKNEAVVKFVLGRIADIQKKQGQNGKNQIDRYYETCIGKDKGKSVSEKVDALTKIITGMNYDQFDKKRSVIEDTGRENAEREKFKKIISLYLTVIYHILKNIVNINARYVIGFHCVERDAQLYKEKGYDINLKKLEEKGFSSVTKLCAGIDETAPDKRKDVEKEMAERAKESIDSLESANPKLYANYIKYSDEKKAEEFTRQINREKAKTALNAYLRNTKWNVIIREDLLRIDNKTCTLFRNKAVHLEVARYVHAYINDIAEVNSYFQLYHYIMQRIIMNERYEKSSGKVSEYFDAVNDEKKYNDRLLKLLCVPFGYCIPRFKNLSIEALFDRNEAAKFDKEKKKVSGNSGSGPKKKRKVPKKKRKV | highest performance |
| SEQ ID NO: 810: inducible system polypeptide, probably Table 20 (GID-GAI) (protein) MIEKKKSFAKGMGVKSTLVSGSKVYMTTFAEGSDARLEKIVEGDSIRSVNEGEAFSAEMADKNAGYKIGNAKFSHPKGYAVVANNPLYTGPVQQDMLGLKETLEKRYFGESADGNDNICIQVIHNILDIEKILAEYITNAAYAVNNISGLDKDIIGFGKFSTVYTYDEFKDPEHHRAAFNNNDKLINAIKAQYDEFDNFLDNPRLGYFGQAFFSKEGRNYIINYGNECYDILALLSGLRHWVVHNNEEESRISRTWLYNLDKNLDNEYISTLNYLYDRITNELTNSFSKNSAANVNYIAETLGINPAEFAEQYFRFSIMKEQKNLGFNITKLREVMLDRKDMSEIRKNHKVFDSIRTKVYTMMDFVIYRYYIEEDAKVAAANKSLPDNEKSLSEKDIFVINLRGSFNDDQKDALYYDEANRIWRKLENIMHNIKEFRGNKTREYKKKDAPRLPRILPAGRDVSAFSKLMYALTMFLDGKEINDLLTTLINKFDNIQSFLKVMPLIGVNAKFVEEYAFFKDSAKIADELRLIKSFARMGEPIADARRAMYIDAIRILGTNLSGGSGSGSSGGSGTMKRDHHHHHHQDKKTMMMNEEDDGNGMDELLAVLGYKVRSSEMADVAQKLEQLEVMMSNVQEDDLSQLATETVHYNPAELYTWLDSMLTDLNPKKKRKV | highest performance |
| SEQ ID NO: 809: inducible system polypeptide, probably Table 20 (GID-GAI) (protein) MAASDEVNLIESRTVVPLNTWVLISNFKVAYNILRRPDGTFNRHLAEYLDRKVTANANPVDGVFSFDVLIDRRINLLSRVYRPAYADQEQPPSILDLEKPVDGDIVPVILFFHGGSFAHSSANSAIYDTLCRRLVGLCKCVVVSVNYRRAPENPYPCAYDDGWIALNWVNSRSWLKSKKDSKVHIFLAGDSSGGNIAHNVALRAGESGIDVLGNILLNPMFGGNERTESEKSLDGKYFVTVRDRDWYWKAFLPEGEDREHPACNPFSPRGKSLEGVSFPKSLVVVAGLDLIRDWQLAYAEGLKKAGQEVKLMHLEKATVGFYLLPNNNHFHNVMDEISAFVNAECSGGSGSGSSGGSGTSYDELKALADTFSLDENGNKLKKGKHGMRNFIINNVISNKRFHYLIRYGDPAHLHEIAKNEAVVKFVLGRIADIQKKQGQNGKNQIDRYYETCIGKDKGKSVSEKVDALTKIITGMNYDQFDKKRSVIEDTGRENAEREKFKKIISLYLTVIYHILKNIVNINARYVIGFHCVERDAQLYKEKGYDINLKKLEEKGFSSVTKLCAGIDETAPDKRKDVEKEMAERAKESIDSLESANPKLYANYIKYSDEKKAEEFTRQINREKAKTALNAYLRNTKWNVIIREDLLRIDNKTCTLFRNKAVHLEVARYVHAYINDIAEVNSYFQLYHYIMQRIIMNERYEKSSGKVSEYFDAVNDEKKYNDRLLKLLCVPFGYCIPRFKNLSIEALFDRNEAAKFDKEKKKVSGNSGSGPKKKRKVPKKKRKV | highest performance |
